Target: native OmpL1, 31-kDa outer membrane protein of Leptospira alstoni (Leptospira alstoni)
Assay: immunoelectron microscopy of intact L. alstoni, protein G-colloidal gold (control serum)

preimmune serum from the same rabbit as the anti-OmpL1 antiserum (control serum)
gold particles per twenty organisms (particles per twenty organisms): 1

Source: patent EP0693936B1
